Target: the molecule itself
Test: SEC; Superdex 200 10/300 GL, 50 mM Tris-HCl pH 7.6, 150 mM NaCl; 50 nmol NgCuNiR; apparent molecular weight from a calibration curve (Gel Filtration Calibration Kit, High Molecular Weight)

B1: copper-containing nitrite reductase from Neisseria gonorrhoeae, soluble domain (enzyme)
chain: AAQATAETPAGELPVIDAVTTHAPEVPPAIDRDYPAKVRVKMETVEKTMKMDDGVEYRYWTFDGDVPGRMIRVREGDTVEVEFSNNPSSTVPHNVDFHAATGQGGGAAATFTAPGRTSTFSFKALQPGLYIYHCAVAPVGMHIANGMYGLILVEPKEGLPKVDKEFYIVQGDFYTKGKKGAQGLQPFDMDKAVAEQPEYVVFNGHVGSIAGDNALKAKAGETVRMYVGNGGPNLVSSFHVIGEIFDKVYVEGGKLINENVQSTIVPAGGSAIVEFKVDIPGSYTLVDHSIFRAFNKGALGQLKVEGAENPEIMTQKLSDTAYA
notes: the construct has no signal peptide; cytoplasmic 36.5 kDa protein; Holds one type 1 and one type 2 copper centre per monomer (2.0 ± 0.1 Cu per monomer); No removal of the His-tag is described; also called NgCuNiR; AniA
With B1 the “stoichiometry N” value was 3.
